Values of other authors in PMC4652169.

Biological target: IgG Fc Fc (Homo sapiens) [IgG part: P01857]
Test: given as Ka

Protein A Z domain (ZWT) Z domain (from UniProt P02976)
Kd: 16.9 nM
